This is an account of results in publication PMC3556581 (Nature structural & molecular biology, 2009).

In assay [1] the target is CypA domain of rhesus macaque TRIMCyp (RhTC CypA) (rhesus macaque, UniProt P62940 1-165, D66N | R69H). Description: ITC.
The target of assay [2] is parental cyclophilin A (CypA) (rhesus macaque; identical in sequence …, UniProt P62940 1-165). Description: ITC.

B1: HIV-2 N-terminal capsid (CA^N) domain (domain or fragment)
chain: not shown
On to B1, for which, in assay [1], the Kd came to 3 µM and the dH was -1.16 kcal/mol. Also, the equilibrium dissociation constant (Kd) in assay [2] came to 91 µM.
